B1: NwCld (Nitrobacter winogradskyi Nb-255) (protein)
chain: MTFTVFTGGDSGAWSILSVAPVIGESLMAASHLAIAPSLSLGDTSATTPWQLRGVASHARYVERAEKIALTSVQAGLGRNEATRAALIPIRKSAAWWEMTQDERRAIFEDKSHHIAASLKYLPAIARQLYHCRDIGEPFDFLTWFEYAPEHATMFEDLVGVLRATEEWTYVEREVDIRLARAI
B2: NdCld (Nitrospira defluvii) (protein)
chain: ADREKLLTESGVYGTFATFQMDHDWWDLPGESRVISVAEVKGLVEQWSGKILVESYLLRGLSDHADLMFRVHARTLSDTQQFLSAFMGTRLGRHLTSGGLLHGVSKKPTYVAGFPESMKTELQVNGESGSRPYAIVIPIKKDAEWWALDQEARTALMQEHTQAALPYLKTVKRKLYHSTGLDDVDFITYFETERLEDFHNLVRALQQVKEFRHNRRFGHPTLLGTMSPLDEILEKFAQ

Substrate: [O-][Cl+]O
Test: purified protein
Conditions: 25 °C, pH 7.0

Row | Protein | Km [µM] | kcat [s⁻¹]
1 | B1 | 90 ± 12 | 190 ± 14
2 | B2 | 58 ± 9 | 35 ± 5
